B1: ZNF8 (parent)
chain: VHVIGVEEPSVGASMLFDIREST
B2: MAGEA6 (parent)
chain: KISGGPRISYPLLHEWALREGEE

Variants of: B1
Experiment: protein stability index of a GFP-peptide fusion (GPS, HEK-293T) (PSI 1-6); higher = more stable
Conditions: c terminus: native
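Also: lentivirally expressed fusions sorted by FACS into six bins by GFP to DsRed ratio, PSI derived from sequencing read proportions per bin multiplied by bin number.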

Protein stability index: each site, then its substitutions
V3: K 3.36, W 1.47, I 1.84, F 1.94, L 1.88, Q 3.87, A 3.18, R 2.81, S 3.42, Y 1.54, E 4.1, P 3.49, T 3.08, H 3.02, M 2.84, C 2.74, D 3.95, N 3.89, G 3.42
I4: H 2.62, A 3.55, F 2.13, D 3.97, G 3.34, C 2.59, K 3.18, E 3.73
H2: F 1.97, P 3.59, I 2.56, M 1.43, T 1.79, Q 2.27, A 2.67, S 2.81, L 2.9, C 1.63, E 3.35, Y 2.51, V 1.83, G 3.35, N 2.95, R 2.09, K 2.29, D 3.42, W 2.25
V1: K 3.52, Y 2.29, L 1.79, C 1.93, N 4.07, A 3.67, W 2.06, I 2, H 3.78, E 4.18, R 2.82, P 3.77, G 3.85, D 3.96, Q 3.88, F 1.82, S 3.97, M 2.29, T 3.92

Variants of: B2
Experiment: as above
Conditions: c terminus: native

Protein stability index: each site, then its substitutions
G21: D 4.14, C 3.26
L12: T 2.23, G 5.59, H 2.3, A 4.05
E15: G 3.53, K 3.16
E23: N 2.73, L 2.27, G 2.41, A 1.23, R 1.88, D 3.38, T 2.25, H 2.73, Y 2.56, I 1.74
Y10: K 3.2, Q 3.78, L 3.04
H14: S 3.4
W16: T 1.89, C 2.94, L 4.59
S9: F 1.61, C 3.18, L 3.34
K1: Q 2.35, D 3.3, F 1.67, W 2.14
S3: W 2.02
L13: Y 1.19, M 1.77, N 2.95, W 3.38, Q 2.27
R7: G 2.84, L 1.92
G5: H 1.73, T 3.04, C 3.47, D 2.6, A 2.31, K 2.48
L18: K 2.72, T 2.04, E 3.11, Q 1.63, S 2.31
G4: V 1.61, T 4.54, S 5.95, C 3.34
I8: Q 2.06, P 2.24, C 2.79, Y 2.6, A 1.95, M 2, G 3.28
R19: A 2.07, F 2.64, K 2.08, H 3.42, N 1.43, P 2.18, T 3.74, D 2.96, C 2.87
P11: S 2.66, E 3.27, I 2.41, M 2.61
P6: S 2.73, I 3.5, R 3.64, G 1.91, K 1.55, A 2.25, T 2.8, N 3.51
E20: P 2.36, K 3.74, N 2.34
I2: C 2.55, W 2.41, D 4
E22: F 2.75, G 2.18, N 2.53, L 2.44, W 1.87, Y 2.29, H 2.49, C 1.88, R 3.04, I 2.37
A17: P 1.02, D 1.28, E 3.55

— the supplement of paper PMC10567573
